Results as given in publication PMC2516929, “Yersinia enterocolitica Serum Resistance Proteins YadA and Ail Bind the Complement Regulator C4b-Binding Protein” (PLoS Pathogens, 2008).

Columns and labels:
[1] = molecular target: T1, YadA of Y. enterocolitica serotype O:3 (strain 6471/76), on the bacterial surface (Y. enterocolitica serotype O:3 (strain …, UniProt P31489 26-455)); assay: radioligand binding; 125I-C4bp with 3x10^8 bacteria in 1/3 GVBS with NaCl from 50 to 650 mM; binding as percent of that at 50 mM NaCl; details: one partner purified
T1 construct: adhesin YadA, Y. enterocolitica 6471/76 serotype O:3, GenBank protein CAA32086; trimeric outer membrane protein; also called YadA (wild type, YeO3); source: endogenous (virulence plasmid pYV), on Y. enterocolitica O:3 strain 6471/76 (YeO3), grown in RPMI 1640 at 37°C
T1 sequence: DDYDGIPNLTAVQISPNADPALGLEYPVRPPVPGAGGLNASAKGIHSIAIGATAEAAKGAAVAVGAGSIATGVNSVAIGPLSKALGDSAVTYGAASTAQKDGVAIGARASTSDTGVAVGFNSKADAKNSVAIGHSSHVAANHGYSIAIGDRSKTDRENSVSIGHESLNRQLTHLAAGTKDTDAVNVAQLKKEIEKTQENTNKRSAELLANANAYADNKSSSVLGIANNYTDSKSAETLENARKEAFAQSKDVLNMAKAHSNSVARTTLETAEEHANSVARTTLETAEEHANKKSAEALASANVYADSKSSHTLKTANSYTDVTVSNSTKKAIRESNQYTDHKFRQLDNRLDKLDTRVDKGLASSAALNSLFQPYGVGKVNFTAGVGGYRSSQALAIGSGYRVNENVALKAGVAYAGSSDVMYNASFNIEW

[2] = molecular target: T2, Ail of Y. enterocolitica serotype O:3, expressed in trans from pTM100-ail on strain YeO3-c-Ail-OCR (Y. enterocolitica serotype O:3, UniProt Q70AM3 24-178); assay: radioligand binding; 125I-C4bp (or 125I-BSA) with 3x10^8 bacteria in hypotonic 1/3 GVBS (50 mM NaCl), 30 min at 37°C; bacteria pelleted through 20% sucrose; bound as percent of total radioactivity; details: one partner purified
T2 construct: Ail, Y. enterocolitica serotype O:3, ail gene cloned as 1711 bp PCR fragment into pTM100; GenBank protein CAE53849; Same protein as m5, from a plasmid; also called Ail (complemented); YeO3-c-Ail-OCR/pTM100-ail; source: pTM100-ail (cloned ail gene) in Y. enterocolitica YeO3-c-Ail-OCR (YadA-, Ail-, O-ag-, OC-), on the bacteria; overexpressed
T2 sequence: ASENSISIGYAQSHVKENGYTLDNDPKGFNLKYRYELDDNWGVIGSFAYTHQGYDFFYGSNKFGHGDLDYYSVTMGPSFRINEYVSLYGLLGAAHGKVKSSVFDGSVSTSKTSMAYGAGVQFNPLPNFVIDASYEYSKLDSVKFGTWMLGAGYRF

B1: C4b-binding protein (C4bp) with protein S (complex)
chain 1: NCGPPPTLSFAAPMDITLTETRFKTGTTLKYTCLPGYVRSHSTQTLTCNSDGEWVYNTFCIYKRCRHPGELRNGQVEIKTDLSFGSQIEFSCSEGFFLIGSTTSRCEVQDRGVGWSHPLPQCEIVKCKPPPDIRNGRHSGEENFYAYGFSVTYSCDPRFSLLGHASISCTVENETIGVWRPSPPTCEKITCRKPDVSHGEMVSGFGPIYNYKDTIVFKCQKGFVLRGSSVIHCDADSKWNPSPPACEPNSCINLPDIPHASWETYPRPTKEDVYVVGTVLRYRCHPGYKPTTDEPTTVICQKNLRWTPYQGCEALCCPEPKLNNGEITQHRKSRPANHCVYFYGDEISFSCHETSRFSAICQGDGTWSPRTPSCGDICNFPPKIAHGHYKQSSSYSFFKEEIIYECDKGYILVGQAKLSCSYSHWSAPAPQCKALCRKPELVNGRLSVDKDQYVEPENVTIQCDSGYGVVGPQSITCSGNRTWYPEVPKCEWETPEGCEQVLTGKRLMQCLPNPEDVKMALEVYKLSLEIEQLELQRDSARQSTLDKEL
chain 2: SDAEHCPELPPVDNSIFVAKEVEGQILGTYVCIKGYHLVGKKTLFCNASKEWDNTTTECRLGHCPDPVLVNGEFSSSGPVNVSDKITFMCNDHYILKGSNRSQCLEDHTWAPPFPICKSRDCDPPGNPVHGYFEGNNFTLGSTISYYCEDRYYLVGVQEQQCVDGEWSSALPVCKLIQEAPKPECEKALLAFQESKNLCEAMENFMQQLKESGMTMEELKYSLELKKAELKAKLL
chain 3: ANSLLEETKQGNLERECIEELCNKEEAREVFENDPETDYFYPKYLVCLRSFQTGLFTAARQSTNAYPDLRSCVNAIPDQCSPLPCNEDGYMSCKDGKASFTCTCKPGWQGEKCEFDINECKDPSNINGGCSQICDNTPGSYHCSCKNGFVMLSNKKDCKDVDECSLKPSICGTAVCKNIPGDFECECPEGYRYNLKSKSCEDIDECSENMCAQLCVNYPGGYTCYCDGKKGFKLAQDQKSCEVVSVCLPLNLDTKYELLYLAEQFAGVVLYLKFRLPEISRFSAEFDFRTYDSEGVILYAESIDHSAWLLIALRGGKIEVQLKNEHTSKITTGGDVINNGLWNMVSVEELEHSISIKIAKEAVMDINKPGPLFKPENGLLETKVYFAGFPRKVESELIKPINPRLDGCIRSWNLMKQGASGIKEIIQEKQNKHCLVTVEKGSYYPGSGIAQFHIDYNNVSSAEGWHVNVTLNIRPSTGTGVMLALVSGNNTVPFAVSLVDSTSEKSQDILLSVENTVIYRIQALSLCSDQQSHLEFRVNRNNLELSTPLKIETISHEDLQRQLAVLDKAMKAKVATYLGGLPDVPFSATPVNAFYNGCMEVNINGVQLDLDEAISKHNDIRAHSCPSVWKKTKNS
modifications: 125I label (Iodogen method) in the 125I-C4bp assays; labelled chain and residues not stated
notes: eight CCP domains; the predominant form has seven identical alpha chains; three CCP domains; one beta chain in the predominant form; protein S, human; co-purified with C4bp from plasma ('C4bp with protein S'); also called 125I-C4bp; serum C4bp; source: purified from pooled human plasma (with protein S); copies: 7 + 1 +
fold decrease of C4bp binding at 100 mM NaCl against 50 mM NaCl [1]: 2 fold | fold C4bp binding capacity against strain YeO3-c-OCR [2]: ~4 fold
